In publication PMC8980812, “Regulation of the activity of the bacterial histidine kinase PleC by the scaffolding protein PodJ” (The Journal of Biological Chemistry, 2022):

What was measured:
[1] = target: the molecule itself; experiment: SEC; 3.2 mg/ml His-PodJ(1–635), Superdex 200 10/300 GL, 50 mM Tris-HCl pH 8.0, 300 mM KCl
[2] = target: T1, PleC PAS AB-HK (Caulobacter crescentus); experiment: cell-based or functional assay
T1 sequence (P37894 whole entry, looked up): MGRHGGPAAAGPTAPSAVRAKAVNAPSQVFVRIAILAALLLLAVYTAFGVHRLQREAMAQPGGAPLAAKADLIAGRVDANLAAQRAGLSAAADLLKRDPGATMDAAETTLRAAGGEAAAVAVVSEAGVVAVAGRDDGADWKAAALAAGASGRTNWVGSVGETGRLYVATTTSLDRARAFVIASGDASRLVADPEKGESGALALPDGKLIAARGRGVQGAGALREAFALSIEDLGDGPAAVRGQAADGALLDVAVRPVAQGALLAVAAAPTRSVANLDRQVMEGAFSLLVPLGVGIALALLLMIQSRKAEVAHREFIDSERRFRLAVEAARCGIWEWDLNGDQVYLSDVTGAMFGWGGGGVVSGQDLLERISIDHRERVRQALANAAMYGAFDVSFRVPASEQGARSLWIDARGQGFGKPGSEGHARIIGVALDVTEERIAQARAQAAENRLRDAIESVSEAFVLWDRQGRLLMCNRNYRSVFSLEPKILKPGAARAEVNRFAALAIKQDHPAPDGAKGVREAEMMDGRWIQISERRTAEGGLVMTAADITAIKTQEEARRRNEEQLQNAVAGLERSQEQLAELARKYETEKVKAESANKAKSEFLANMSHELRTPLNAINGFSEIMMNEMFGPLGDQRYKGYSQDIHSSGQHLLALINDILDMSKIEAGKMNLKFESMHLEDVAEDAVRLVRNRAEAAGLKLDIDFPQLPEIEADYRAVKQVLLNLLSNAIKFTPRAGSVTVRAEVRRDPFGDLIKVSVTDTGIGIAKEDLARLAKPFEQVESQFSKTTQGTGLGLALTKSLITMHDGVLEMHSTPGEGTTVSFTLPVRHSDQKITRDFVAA

B1: His-PodJ(1–635) (domain or fragment, Caulobacter crescentus, UniProt Q9ZG88 1-635, looked up)
chain: MTAASPWSVKGIDPKAREVAKDLARRSGMTLGEWLNRMIIEGDGQTADPRLAGDDVPNRAYLEIVKDDAPPRIEIAEHPADEVGRVALALDRLTQRIEAAEGRNAAAITGIDHSVRDALTRLGASEREQIAVAARFEGAVDELKTEQARATERLRRIESEAAGPRSAEALRALEGALGKVAGHLYEGEARTREAIATLEAKLNQQSSGDPSALVEAVVARLGERLEAAETRTSDALRELGASFQALDQRLGAVETANPATGVQEGLDSLAATLTQKMEAARLEMAAKLRESADGRFDRMERKLGEMAAHVQAAEQRSAQAIERMGREIVGVADAFNRRVHAAESRNASAIEQVGGEVARIAASVEHKLNRADSVQAQALEKLGGEIARITEKLAERIGSAERRNALAIDDVGEQVARVTERLNQRHERSSQELVDRIRQSEERTLRMLEEAREKIDSRLSEAQRKLEAAPPSPPPAQAPAPVATAQRPVPPAASPFEDNYFSQAASFSTSEDEADAFDAPPAPARSFEVAEFPAAEPEEPAFAHDDYAIADGFEPESPRYEVEPEVSDFAPAEPSRPMSTRDIIEQARAAARAAAASEGKGGKAKSAKKEKASKASGSLFSGFGGFSTKKSKARL
notes: PodJ, Caulobacter crescentus, cytoplasmic domains without the transmembrane tether, residues 1–635; also called cytoplasmic portion of PodJ; source: E. coli Rosetta (DE3), plasmid pwz091, purified (HisTrap HP)
- binding result [1]: binds
- IC50 of the repression of the ADP production rate of 7.5 μM PleC PAS AB-HK with 1000 μM ATP (coupled enzyme assay), PodJ(1–635) 0-7.5 μM [2]: 1860 nM
